B1: GPIHBP1^Cluster1-neutral: GPIHBP1 mutant with all Glu/Asp replaced by Gln/Asn at residues 1–17 (protein)
chain: QTQQQQQQQNQNHGPNNYDEEDEDEVEEEETNRLPGGGSRVLLRCYTCKSLPRDERCNLTQNCSHGQTCTTLIAHGNTESGLLTTHSTWCTDSCQPITKTVEGTQVTMTCCQSSLCNVPPWQSSRVQDPTG
modifications: Tyr18 sulfation present in less than 40%; one bi-antennary N-linked glycosylation; left off: uPAR domain III, N-terminal, cleaved
B2: GPIHBP1^Cluster2-neutral: GPIHBP1 mutant with all Glu/Asp replaced by Gln/Asn at residues 19–30 (protein)
chain: QTQQEEEEEDEDHGPDDYNQQNQNQVQQQQTNRLPGGGSRVLLRCYTCKSLPRDERCNLTQNCSHGQTCTTLIAHGNTESGLLTTHSTWCTDSCQPITKTVEGTQVTMTCCQSSLCNVPPWQSSRVQDPTG
modifications: Tyr18 sulfation absent; one bi-antennary N-linked glycosylation; left off: uPAR domain III, N-terminal, cleaved

Experiments:
human LPL = experiment: Native PAGE binding to human LPL; details: 4 µM LPL with 18 µM GPIHBP1, 30 min on ice; Coomassie staining
Experimental: (§1) Distinct impacts of disordered acidic clusters in GPIHBP1
(§2) To confirm interactions between puri fi ed human GPIHBP11–131, G P IH B P 1 Cluster1-neutral, or GPIHBP1 Cluster2-neutral with human, mouse, and bovine LPL, these protein pairs were incubated for 30 min on ice (4 µM LPL with 18 µM GPIHBP1) before they were analyzed by native PAGE. As th ese concentrations were well above t he K D of 0.2 nM for the wildtype LPL•GPIHBP1 interaction, LPL is saturated with GPIHBP1 in these experiments (1). […]
(§3) spect r a for the purified GPIHBP1 variants wer e r ecor ded at 25°C in Helman cuvettes (path- length of 1 mm) with a scan rate of 50 nm/ min c ove r i ng the range of 190- 250 nm, averaging three scans for each protein. Spectra for the pr ote i ns were compared after converting to molar ellipticity using the following equation, […] where, Mw is the molecular weight of the protein, c is the protein concentration in g/l, l is the pat h-length of the cuvette, Nr number of amino acid residues in the protein.
(§4) Figure S1 : Binding of GPIHBP1 charge mutants to LPL as assessed by Native PAGE. The electrophoretic mobility of GPIHBP1 variants alone or in presence of purified human LPL ( A), b ovine LPL (B), and murine LPL (C) was assessed by native PAGE followed by Coomassie blue staining. […]

bLPL = experiment: PCSK3 cleavage of LPL (SDS-PAGE densitometry); type: biochemical, bovine; details: 20 μM bLPL, 25°C; for protection of LPL against ANGPTL4-induced cleavage by PCSK3 / protection of LPL against PCSK3 cleavage triggered by spontaneous unfolding: 0–240 min; for protection of LPL against PCSK3 cleavage triggered by spontaneous unfolding: 4 units PCSK3, without ANGPTL4, 25 μM GPIHBP1 variant
Experimental: To determine if charge-variants of GPIHBP1 confer distinct resistance to ANGPTL4-facilitated cleavage of LPL after Arg^324 by PCSK3 ([33]), we incubated purified bLPL (20 μM) with PCSK3 (4 units) for 0–240 min, either alone or in the presence of ANGPTL4 (2 μM) and/or GPIHBP1 (25 μM) at 25°C in 10 mM 2-(N-morpholino) ethane sulfonic acid (MES), 150 mM NaCl, 1 mM CaCl2, pH 7.0. We tested four different GPIHBP1 variants: GPIHBP1^1–131, GPIHBP1^Cluster1-neutral, GPIHBP1^Cluster2-neutral, and GPIHBP1^34–131 (LU domain only). PCSK3 cleavage was stopped by boiling in SDS-PAGE sample buffer (reduced and alkylated) and the degree of cleavage was assessed by SDS-PAGE using 12% Bis-Tris SDS-PAGE gels followed by densitometric scanning of the corresponding Coomassie blue–stained SDS-polyacrylamide gels.
Secretion of LPL by adipocytes is modulated in an autocrine manner by ANGPTL4. […] In the presence of endogenous ANGPTL4, a significant fraction of LPL was cleaved by PCSK3 in the trans-Golgi compartment. […] The presence of GPIHBP1 dramatically delayed PCSK3 cleavage of LPL ([33]). To assess the role of the acidic tail in GPIHBP1 on this delay, we incubated 20 μM bLPL with 4 units of PCSK3 either alone or in the presence of 2 μM ANGPTL4. We observed that the presence of sub-stoichiometric amounts of ANGPTL4 reduced the half-life of intact bLPL from 110 min to less than 5 min (Fig. 5A). […] Our results emphasized the essential role of GPIHBP1’s acidic tail in protecting LPL against ANGPTL4-induced cleavage by PCSK3.
Fig. 5 GPIHBP1 reduces ANGPTL4-facillitated PSCK3 cleavage of LPL. 20 μM bLPL was incubated with 4 units of PSCK3 for 0–240 min at 25°C and the extent of LPL cleavage after Arg^324 was assessed by densitometric scanning of Coomassie–blue stained polyacrylamide after SDS-PAGE of reduced and alkylated samples. A: PSCK3 cleavage of LPL is accelerated by the presence of 2 μM ANGPTL4—present at sub-stoichiometric amounts compared to bLPL (20 μM). 25 μM intact GPIHBP1, but not GPIHBP1^34–131 mitigates PSCK3 cleavage of LPL. B: Both GPIHBP1^Cluster1-neutral and GPIHBP1^Cluster2-neutral rescue LPL from cleavage by PSCK3 in the absence of ANGPTL4 and both are more efficient than GPIHBP1^34–131. C: in the presence of 2 μM ANGPTL4, 25 μM GPIHBP1^Cluster1-neutral protects LPL from PSCK3 cleavage more efficiently than the GPIHBP1^Cluster2-neutral, which indicates a more prominent role of acidic cluster 2 in protecting LPL from ANGPTL4-catalyzed unfolding and subsequent PSCK3 cleavage. Shown are the mean values (±SEM) for intact LPL relative to that present at time 0 min for 3–5 independent time-course experiments. Some curves appear in multiple panels to increase clarity.

bovine LPL = experiment: Native PAGE binding to bovine LPL; details: 4 µM LPL with 18 µM GPIHBP1, 30 min on ice; Coomassie staining
Experimental: as §1, §2, §3, §4

[1] = 4 units PCSK3, 2 μM ANGPTL4, 25 μM GPIHBP1 variant

Molecule	binding to hLPL as judged by native PAGE (human LPL)	protection of LPL against ANGPTL4-induced cleavage by PCSK3 (bLPL; [1])	half-life of intact LPL (bLPL; 4 units PCSK3, 2 μM ANGPTL4, 25 μM GPIHBP1 variant, pH 7.0, less than 5 min without GPIHBP1) [min]	protection of LPL against PCSK3 cleavage triggered by spontaneous unfolding (bLPL)	binding to bLPL as judged by native PAGE (bovine LPL)
B1	bound	significant protection	25	prevented that cleavage completely	bound
B2	bound	marginal protection		prevented that cleavage completely	bound
